For this assay, the target named is T1, human RORγt ligand binding domain (residues 265 to 518) with an N-terminal His6-tag (human, UniProt P51449-1 265-518).
T1 sequence (looked up): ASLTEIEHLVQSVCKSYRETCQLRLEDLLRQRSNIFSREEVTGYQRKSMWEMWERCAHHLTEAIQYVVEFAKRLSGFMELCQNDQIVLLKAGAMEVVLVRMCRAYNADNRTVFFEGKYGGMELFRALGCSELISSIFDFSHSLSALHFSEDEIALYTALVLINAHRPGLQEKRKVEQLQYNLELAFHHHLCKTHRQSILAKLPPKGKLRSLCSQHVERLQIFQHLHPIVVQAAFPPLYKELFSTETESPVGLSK
The assay can be described thus: AlphaScreen or HTRF. (In general: Bead proximity is the source of the signal in Alpha formats.)

The star is where a group is joined. Biotin = O=C1N[C@H]2[C@H](CS[C@H]2CCCCC(=O)*)N1

B1: N-terminal biotinylated SRC-1 box2 peptide (peptide)
peptide: Biotin-PSSHSSLTARHKILHRLLQEGSPSD-NH2
SMILES: CC[C@H](C)[C@H](NC(=O)[C@H](CCCCN)NC(=O)[C@H](Cc1c[nH]cn1)NC(=O)[C@H](CCCNC(=N)N)NC(=O)[C@H](C)NC(=O)[C@@H](NC(=O)[C@H](CC(C)C)NC(=O)[C@H](CO)NC(=O)[C@H](CO)NC(=O)[C@H](Cc1c[nH]cn1)NC(=O)[C@H](CO)NC(=O)[C@H](CO)NC(=O)[C@@H]1CCCN1C(=O)CCCC[C@@H]1SC[C@@H]2NC(=O)N[C@@H]21)[C@@H](C)O)C(=O)N[C@@H](CC(C)C)C(=O)N[C@@H](Cc1c[nH]cn1)C(=O)N[C@@H](CCCNC(=N)N)C(=O)N[C@@H](CC(C)C)C(=O)N[C@@H](CC(C)C)C(=O)N[C@@H](CCC(N)=O)C(=O)N[C@@H](CCC(=O)O)C(=O)NCC(=O)N[C@@H](CO)C(=O)N1CCC[C@H]1C(=O)N[C@@H](CO)C(=O)N[C@@H](CC(=O)O)C(N)=O
As to B1, the binding result is “binds”.

These data come from article PMC8017705 (Proceedings of the National Academy of Sciences of the …, 2021).
